A word on the stoichiometry N: it is a count of units in the complex or per binding partner.

Values joined by “and” are separate entries in the source; they are usually repeats but may differ in a detail not shown here. Equal values may be shown once.

This is an account of results in PMC10026069, “Retinal–Carotenoid Interactions in a Sodium-Ion-Pumping Rhodopsin: Implications on Oligomerization and Thermal Stability” (The Journal of Physical Chemistry. B, 2023).

For test [1], the target named is Nonlabens (Donghaeana) dokdonensis rhodopsin (DDR2) (Nonlabens (Donghaeana) dokdonensis). Kind of test: SEC; AKTA FPLC; DDM-solubilised DDR2 at pH 7 or 9; apparent masses from soluble protein markers; 0.06% DDM, 300 mM NaCl; also run with salinixanthin bound (oligomeric form not affected).
The target in test [2] is T1, DDR2 (Nonlabens (Donghaeana) dokdonensis rhodopsin, sodium-ion-pumping rhodopsin) (Nonlabens dokdonensis, UniProt A0ABX5Q1D8).
T1 construct: gene LX97_00829; pentamer at neutral pH
T1 sequence (A0ABX5Q1D8 1-279): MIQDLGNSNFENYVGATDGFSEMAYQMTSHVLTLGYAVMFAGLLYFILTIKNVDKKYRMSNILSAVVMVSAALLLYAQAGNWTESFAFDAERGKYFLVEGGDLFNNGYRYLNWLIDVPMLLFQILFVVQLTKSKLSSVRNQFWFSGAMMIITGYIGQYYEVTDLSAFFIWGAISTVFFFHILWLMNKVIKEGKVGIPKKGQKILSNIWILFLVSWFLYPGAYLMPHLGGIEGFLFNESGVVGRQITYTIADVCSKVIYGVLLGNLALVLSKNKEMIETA
Kind of test: absorption spectroscopy of the pigment. As to conditions: covalent, protonated Schiff base to lysine; pH 8, room temperature. Format: binding.

Regarding “Nonlabens (Donghaeana) dokdonensis rhodopsin (DDR2) (natural protein)”, the stoichiometry N in test [1] is 5 and 10.
In the case of `CC1=C(/C=C/C(C)=C/C=C/C(C)=C/C=O)C(C)(C)CCC1` [all-trans retinal], the “absorption spectroscopy of the pigment” value in test [2] is listed as “absorption of the all-trans retinal chromophore covalently bound to the protein”.
